Reference: article PMC4068106

Target: T1, human C-reactive protein (GMP preparation) (human), P02741
T1 chain: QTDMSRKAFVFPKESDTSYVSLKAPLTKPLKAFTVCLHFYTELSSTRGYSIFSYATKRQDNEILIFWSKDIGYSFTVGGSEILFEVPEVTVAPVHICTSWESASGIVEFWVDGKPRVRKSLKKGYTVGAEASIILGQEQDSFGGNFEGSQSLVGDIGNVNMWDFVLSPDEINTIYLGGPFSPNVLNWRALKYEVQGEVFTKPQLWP
Assay: SEC; 0.02 mg in 100 uL on Superdex 200, 0.5 mL/min, 10 mM Tris, 140 mM NaCl, 2 mM CaCl2, pH 8.0; self-assembly of CRP
Conditions: remark: other sources report otherwise

- stoichiometry N: 5
B1: human C-reactive protein (GMP preparation), P02741 19-224 (natural protein)
chain: T1 chain
modifications: here or on the partner: N-terminal PCA; N-terminal PCA
